From US5998154 come the findings set out here.

The target in assay [1] is rat sst2A receptor (expressed in stably transfected CHO-K1 cells, CHO-R2 / CHO-R2A) (rat) (UniProt P30680). Kind of assay: PEG precipitation of solubilised radioligand-receptor complex from CHO-R2 cells.
The target is the same in assay [2]. The assay is described as above. The source holds these as a separate data set.
The target in assay [3] is sst4 receptor (expressed in stably transfected CHO-K1 cells, CHO-R4). Kind of assay: PEG precipitation of solubilised radioligand-receptor complex from CHO-R4 cells.
For assay [4], the target named is sst3 receptor (expressed in stably transfected CHO-K1 cells, CHO-R3). The assay is described as follows: PEG precipitation of solubilised radioligand-receptor complex from CHO-R3 cells.
Assay [5] addresses rat sst1 receptor (expressed in stably transfected CHO-K1 cells, CHO-R1) (rat) (UniProt P28646). The assay is described as follows: PEG precipitation of solubilised radioligand-receptor complex from CHO-R1 cells.
For assay [6] the target is unchanged. The description is as above. This is another data set of the same source.
For assay [7] the target is unchanged. Described as above. The source holds these as a separate data set.
Assay [8] concerns the target sst4 receptor (expressed in stably transfected CHO-K1 cells, CHO-R4). Kind of assay: PEG precipitation of solubilised radioligand-receptor complex from CHO-R4 cells. The source holds these as a separate data set.
In assay [9] the target is rat sst1 receptor (expressed in stably transfected CHO-K1 cells, CHO-R1) (rat) (UniProt P28646). The assay is described as follows: PEG precipitation of solubilised radioligand-receptor complex from CHO-R1 cells. This is another data set of the same source.
Assay [10] addresses rat sst2A receptor (expressed in stably transfected CHO-K1 cells, CHO-R2 / CHO-R2A) (rat) (UniProt P30680). The assay is described as follows: dissociation from the receptor complex immunoprecipitated with R2-88 from GH4C1 cells, no guanine nucleotide.
For assay [11], the target named is rat sst1 receptor (expressed in stably transfected CHO-K1 cells, CHO-R1) (rat) (UniProt P28646). The assay is described as follows: dissociation from the receptor complex immunoprecipitated with R1-201 from CHO-R1 cells, no guanine nucleotide.
Assay [12] has as its target sst4 receptor (expressed in stably transfected CHO-K1 cells, CHO-R4). Kind of assay: PEG precipitation of solubilised radioligand-receptor complex from CHO-R4 cells. The source holds these as a separate data set.
Assay [13] addresses rat sst2A receptor (expressed in stably transfected CHO-K1 cells, CHO-R2 / CHO-R2A) (rat) (UniProt P30680). The assay is described as follows: PEG precipitation of solubilised radioligand-receptor complex from CHO-R2 cells. This is another data set of the same source.
Assay [14] has as its target rat sst1 receptor (expressed in stably transfected CHO-K1 cells, CHO-R1) (rat) (UniProt P28646). The assay is described as follows: PEG precipitation of solubilised radioligand-receptor complex from CHO-R1 cells. The source holds these as a separate data set.

“And” between values parts separate entries of the source, which are not always exact repeats. Identical values can stand only once. Like-named read-outs stand apart in the source and are kept apart here.

Turning to [125I-Tyr11]SRIF (peptide), the Precipitated Complex (cpm), PEG in assay [1] is 8840 cpm and 6330 cpm; in assay [2] it was 8490 cpm; in assay [3], 10000 cpm; in assay [4] it was 683 cpm; in assay [5], 706 cpm; in assay [6], 8350 cpm. Besides, the Precipitated Complex (cpm), PEG in assay [7] is 15100 cpm; in assay [8], 4980 cpm and 10000 cpm; in assay [9], 7060 cpm; in assay [12], 12500 cpm; in assay [13], 16200 cpm; in assay [14], 7100 cpm. Further, the percent of specifically bound ligand dissociated in [10] stood at 12%; in assay [11] it was 53%.
